{
  "source": "patent US20250019440A1",
  "about": "(Zymeworks, published 2025)",
  "binders": {"B1": {"name": "v39009 (bispecific) (other)", "heavy chain 1 (H1)": "EVQLVESGGGLVQPGGSLRLSCAASGVTFNYYGMSWIRQAPGKGLEWVASITSSGGRIYYPDSVKGRFTISRENTQKTLYLQMNSLRAEDTAVYYCTLDGRDGWVAYWGQGTLVTVSSASTKGPSVFPLAPSSKSTSGGTAALGCLVKDYFPEPVTVSWNSGALTSGVHTFPAVLQSSGLYSLSSVVTVPSSSLGTQTYICNVNHKPSNTKVDKKVEPKSCDKTHTCPPCPAPEAAGGPSVFLFPPKPKDTLMISRTPEVTCVVVSVSHEDPEVKFNWYVDGVEVHNAKTKPREEQYNSTYRVVSVLTVLHQDWLNGKEYKCKVSNKALPAPIEKTISKAKGQPREPQVYVYPPSRDELTKNQVSLTCLVKGFYPSDIAVEWESNGQPENNYKTTPPVLDSDGSFALVSKLTVDKSRWQQGNVFSCSVMHEALHNHYTQKSLSLSPGGGGGSGQVQLVESGGGLVQPGGSLRLSCSVSGIDLSSNPMIWVRQAPGKGLQYIGIIDTDGSTYYADWAKGRFTISKDSTTVYLQINSPRAEDTAVYYCARRLHGSSNGYYDDLWGQGTLVTVSSGGGGSGGGGSGGGGSGGGGSDGQMTQSPSSVSASVGDRVTITCQASQSIYSYLSWYQQKPGQRPKLLIYKASTLASGVPSRFSGSGSGTDFTLTISSVQPEDFATYYCQQGYTVTNVDKNTFGGGTKVEIK", "light chain (L1)": "NFMLTQPHSVSESPGKTVTISCKRNTGNIGSNYVNWYQQHEGSSPTTIIYRNDKRPDGVSDRFSGSIDRSSKSASLTISNLKTEDEADYFCQSYSSGFIFGGGTKLTVLGQPKAAPSVTLFPPSSEELQANKATLVCLISDFYPGAVTVAWKADSSPVKAGVETTTPSKQSNNKYAASSYLSLTPEQWKSHRSYSCQVTHEGSTVEKTVAPTECSGGGGSGDRPWNPPTFSPALLVVTEGDNATFTCSFSNTSESFVLNWYRMSPSNQTDALAAFPEDRSQPGQDARFRVTQLPNGRDFHMSVVRARRNDSGTYLCGAASLAPKAQIKESLRAELRVTE", "heavy chain 2 (H2)": "QVQLVESGGGLVQPGGSLRLSCSVSGIDLSSNPMIWVRQAPGKGLQYIGIIDTDGSTYYADWAKGRFTISKDSTTVYLQINSPRAEDTAVYYCARRLHGSSNGYYDDLWGQGTLVTVSSGGGGSGGGGSGGGGSGGGGSDGQMTQSPSSVSASVGDRVTITCQASQSIYSYLSWYQQKPGQRPKLLIYKASTLASGVPSRFSGSGSGTDFTLTISSVQPEDFATYYCQQGYTVTNVDKNTFGGGTKVEIKAAEPKSSDKTHTCPPCPAPEAAGGPSVFLFPPKPKDTLMISRTPEVTCVVVSVSHEDPEVKFNWYVDGVEVHNAKTKPREEQYNSTYRVVSVLTVLHQDWLNGKEYKCKVSNKALPAPIEKTISKAKGQPREPQVYVLPPSRDELTKNQVSLLCLVKGFYPSDIAVEWESNGQPENNYLTWPPVLDSDGSFFLYSKLTVDKSRWQQGNVFSCSVMHEALHNHYTQKSLSLSPG"}, "B2": {"name": "v39001 (bispecific) (other)", "heavy chain 1 (H1)": "EVQLVESGGGLVQPGGSLRLSCAASGVTFNYYGMSWIRQAPGKGLEWVASITSSGGRIYYPDSVKGRFTISRENTQKTLYLQMNSLRAEDTAVYYCTLDGRDGWVAYWGQGTLVTVSSASTKGPSVFPLAPSSKSTSGGTAALGCLVKDYFPEPVTVSWNSGALTSGVHTFPAVLQSSGLYSLSSVVTVPSSSLGTQTYICNVNHKPSNTKVDKKVEPKSCDKTHTCPPCPAPEAAGGPSVFLFPPKPKDTLMISRTPEVTCVVVSVSHEDPEVKFNWYVDGVEVHNAKTKPREEQYNSTYRVVSVLTVLHQDWLNGKEYKCKVSNKALPAPIEKTISKAKGQPREPQVYVYPPSRDELTKNQVSLTCLVKGFYPSDIAVEWESNGQPENNYKTTPPVLDSDGSFALVSKLTVDKSRWQQGNVFSCSVMHEALHNHYTQKSLSLSPGGGGGSGQVQLVESGGGLVQPGGSLRLSCSVSGIDLSSNPMIWVRQAPGKGLQYIGIIDTDGSTYYADWAKGRFTISKDSTTVYLQINSPRAEDTAVYYCARRLHGSSNGYYDDLWGQGTLVTVSSGGGGSGGGGSGGGGSGGGGSDGQMTQSPSSVSASVGDRVTITCQASQSIYSYLSWYQQKPGQRPKLLIYKASTLASGVPSRFSGSGSGTDFTLTISSVQPEDFATYYCQQGYTVTNVDKNTFGGGTKVEIK", "light chain (L1)": "NFMLTQPHSVSESPGKTVTISCKRNTGNIGSNYVNWYQQHEGSSPTTIIYRNDKRPDGVSDRFSGSIDRSSKSASLTISNLKTEDEADYFCQSYSSGFIFGGGTKLTVLGQPKAAPSVTLFPPSSEELQANKATLVCLISDFYPGAVTVAWKADSSPVKAGVETTTPSKQSNNKYAASSYLSLTPEQWKSHRSYSCQVTHEGSTVEKTVAPTECS", "heavy chain 2 (H2)": "NPPTFSPALLVVTEGDNATFTCSFSNTSESFVLNWYRMSPSNQTDALAAFPEDRSQPGQDARFRVTQLPNGRDFHMSVVRARRNDSGTYLCGAASLAPKAQIKESLRAELRVTEGGGGSGQVQLVESGGGLVQPGGSLRLSCSVSGIDLSSNPMIWVRQAPGKGLQYIGIIDTDGSTYYADWAKGRFTISKDSTTVYLQINSPRAEDTAVYYCARRLHGSSNGYYDDLWGQGTLVTVSSGGGGSGGGGSGGGGSGGGGSDGQMTQSPSSVSASVGDRVTITCQASQSIYSYLSWYQQKPGQRPKLLIYKASTLASGVPSRFSGSGSGTDFTLTISSVQPEDFATYYCQQGYTVTNVDKNTFGGGTKVEIKAAEPKSSDKTHTCPPCPAPEAAGGPSVFLFPPKPKDTLMISRTPEVTCVVVSVSHEDPEVKFNWYVDGVEVHNAKTKPREEQYNSTYRVVSVLTVLHQDWLNGKEYKCKVSNKALPAPIEKTISKAKGQPREPQVYVLPPSRDELTKNQVSLLCLVKGFYPSDIAVEWESNGQPENNYLTWPPVLDSDGSFFLYSKLTVDKSRWQQGNVFSCSVMHEALHNHYTQKSLSLSPG"}, "B3": {"name": "v39004 - A132L (other)", "heavy chain 1 (H1)": "EVQLVESGGGLVQPGGSLRLSCAASGVTFNYYGMSWIRQAPGKGLEWVASITSSGGRIYYPDSVKGRFTISRENTQKTLYLQMNSLRAEDTAVYYCTLDGRDGWVAYWGQGTLVTVSSASTKGPSVFPLAPSSKSTSGGTAALGCLVKDYFPEPVTVSWNSGALTSGVHTFPAVLQSSGLYSLSSVVTVPSSSLGTQTYICNVNHKPSNTKVDKKVEPKSCDKTHTCPPCPAPEAAGGPSVFLFPPKPKDTLMISRTPEVTCVVVSVSHEDPEVKFNWYVDGVEVHNAKTKPREEQYNSTYRVVSVLTVLHQDWLNGKEYKCKVSNKALPAPIEKTISKAKGQPREPQVYVYPPSRDELTKNQVSLTCLVKGFYPSDIAVEWESNGQPENNYKTTPPVLDSDGSFALVSKLTVDKSRWQQGNVFSCSVMHEALHNHYTQKSLSLSPGGGGGSGQVQLVESGGGLVQPGGSLRLSCSVSGIDLSSNPMIWVRQAPGKGLQYIGIIDTDGSTYYADWAKGRFTISKDSTTVYLQINSPRAEDTAVYYCARRLHGSSNGYYDDLWGQGTLVTVSSGGGGSGGGGSGGGGSGGGGSDGQMTQSPSSVSASVGDRVTITCQASQSIYSYLSWYQQKPGQRPKLLIYKASTLASGVPSRFSGSGSGTDFTLTISSVQPEDFATYYCQQGYTVTNVDKNTFGGGTKVEIK", "light chain (L1)": "NFMLTQPHSVSESPGKTVTISCKRNTGNIGSNYVNWYQQHEGSSPTTIIYRNDKRPDGVSDRFSGSIDRSSKSASLTISNLKTEDEADYFCQSYSSGFIFGGGTKLTVLGQPKAAPSVTLFPPSSEELQANKATLVCLISDFYPGAVTVAWKADSSPVKAGVETTTPSKQSNNKYAASSYLSLTPEQWKSHRSYSCQVTHEGSTVEKTVAPTECS", "heavy chain 2 (H2)": "QVQLVESGGGLVQPGGSLRLSCSVSGIDLSSNPMIWVRQAPGKGLQYIGIIDTDGSTYYADWAKGRFTISKDSTTVYLQINSPRAEDTAVYYCARRLHGSSNGYYDDLWGQGTLVTVSSGGGGSGGGGSGGGGSGGGGSDGQMTQSPSSVSASVGDRVTITCQASQSIYSYLSWYQQKPGQRPKLLIYKASTLASGVPSRFSGSGSGTDFTLTISSVQPEDFATYYCQQGYTVTNVDKNTFGGGTKVEIKAAEPKSSDKTHTCPPCPAPEAAGGPSVFLFPPKPKDTLMISRTPEVTCVVVSVSHEDPEVKFNWYVDGVEVHNAKTKPREEQYNSTYRVVSVLTVLHQDWLNGKEYKCKVSNKALPAPIEKTISKAKGQPREPQVYVLPPSRDELTKNQVSLLCLVKGFYPSDIAVEWESNGQPENNYLTWPPVLDSDGSFFLYSKLTVDKSRWQQGNVFSCSVMHEALHNHYTQKSLSLSPGGGGGSGDRPWNPPTFSPALLVVTEGDNATFTCSFSNTSESFVLNWYRMSPSNQTDKLAAFPEDRSQPGQDARFRVTQLPNGRDFHMSVVRARRNDSGTYLCGAISLAPKLQIKESLRAELRVTE"}, "B4": {"name": "v39005 (bispecific) (other)", "heavy chain 1 (H1)": "EVQLVESGGGLVQPGGSLRLSCAASGVTFNYYGMSWIRQAPGKGLEWVASITSSGGRIYYPDSVKGRFTISRENTQKTLYLQMNSLRAEDTAVYYCTLDGRDGWVAYWGQGTLVTVSSASTKGPSVFPLAPSSKSTSGGTAALGCLVKDYFPEPVTVSWNSGALTSGVHTFPAVLQSSGLYSLSSVVTVPSSSLGTQTYICNVNHKPSNTKVDKKVEPKSCDKTHTCPPCPAPEAAGGPSVFLFPPKPKDTLMISRTPEVTCVVVSVSHEDPEVKFNWYVDGVEVHNAKTKPREEQYNSTYRVVSVLTVLHQDWLNGKEYKCKVSNKALPAPIEKTISKAKGQPREPQVYVYPPSRDELTKNQVSLTCLVKGFYPSDIAVEWESNGQPENNYKTTPPVLDSDGSFALVSKLTVDKSRWQQGNVFSCSVMHEALHNHYTQKSLSLSPGGGGGSGQVQLVESGGGLVQPGGSLRLSCSVSGIDLSSNPMIWVRQAPGKGLQYIGIIDTDGSTYYADWAKGRFTISKDSTTVYLQINSPRAEDTAVYYCARRLHGSSNGYYDDLWGQGTLVTVSSGGGGSGGGGSGGGGSGGGGSDGQMTQSPSSVSASVGDRVTITCQASQSIYSYLSWYQQKPGQRPKLLIYKASTLASGVPSRFSGSGSGTDFTLTISSVQPEDFATYYCQQGYTVTNVDKNTFGGGTKVEIK", "light chain (L1)": "NFMLTQPHSVSESPGKTVTISCKRNTGNIGSNYVNWYQQHEGSSPTTIIYRNDKRPDGVSDRFSGSIDRSSKSASLTISNLKTEDEADYFCQSYSSGFIFGGGTKLTVLGQPKAAPSVTLFPPSSEELQANKATLVCLISDFYPGAVTVAWKADSSPVKAGVETTTPSKQSNNKYAASSYLSLTPEQWKSHRSYSCQVTHEGSTVEKTVAPTECS", "heavy chain 2 (H2)": "QVQLVESGGGLVQPGGSLRLSCSVSGIDLSSNPMIWVRQAPGKGLQYIGIIDTDGSTYYADWAKGRFTISKDSTTVYLQINSPRAEDTAVYYCARRLHGSSNGYYDDLWGQGTLVTVSSGGGGSGGGGSGGGGSGGGGSDGQMTQSPSSVSASVGDRVTITCQASQSIYSYLSWYQQKPGQRPKLLIYKASTLASGVPSRFSGSGSGTDFTLTISSVQPEDFATYYCQQGYTVTNVDKNTFGGGTKVEIKAAEPKSSDKTHTCPPCPAPEAAGGPSVFLFPPKPKDTLMISRTPEVTCVVVSVSHEDPEVKFNWYVDGVEVHNAKTKPREEQYNSTYRVVSVLTVLHQDWLNGKEYKCKVSNKALPAPIEKTISKAKGQPREPQVYVLPPSRDELTKNQVSLLCLVKGFYPSDIAVEWESNGQPENNYLTWPPVLDSDGSFFLYSKLTVDKSRWQQGNVFSCSVMHEALHNHYTQKSLSLSPGGGGGSGDRPWNPPTFSPALLVVTEGDNATFTCSFSNTSESFVLNWYRMSPSNQTDALAAFPEDRSQPGQDARFRVTQLPNGRDFHMSVVRARRNDSGTYLCGAASLAPKAQIKESLRAELRVTE"}},
  "assay_in_all_cases": "cell-based or functional assay",
  "key": {"[1]": {"molecular_target": "T1, CD3 on T cells (Homo sapiens (Human), UniProt P07766 23-207; P04234 22-171; P09693 23-182)", "T1 sequence (P07766 23-207 limits assumed, chain 1 of 3)": "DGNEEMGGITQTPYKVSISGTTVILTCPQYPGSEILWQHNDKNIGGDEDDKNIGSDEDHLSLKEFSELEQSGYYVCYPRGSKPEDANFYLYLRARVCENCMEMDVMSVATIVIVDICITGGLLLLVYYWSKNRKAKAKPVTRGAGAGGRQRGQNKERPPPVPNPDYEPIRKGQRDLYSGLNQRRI", "T1 sequence (P04234 22-171 limits assumed, chain 2 of 3)": "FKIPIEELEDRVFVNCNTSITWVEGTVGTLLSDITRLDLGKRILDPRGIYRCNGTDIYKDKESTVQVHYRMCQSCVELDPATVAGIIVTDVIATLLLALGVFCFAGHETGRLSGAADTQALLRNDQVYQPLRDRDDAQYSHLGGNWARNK", "T1 sequence (P09693 23-182 limits assumed, chain 3 of 3)": "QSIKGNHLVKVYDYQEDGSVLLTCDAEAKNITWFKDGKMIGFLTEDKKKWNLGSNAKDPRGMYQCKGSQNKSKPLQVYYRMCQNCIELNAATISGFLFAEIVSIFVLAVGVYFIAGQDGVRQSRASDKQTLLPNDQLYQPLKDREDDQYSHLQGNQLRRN"}, "[2]": {"molecular_target": "T1, CD3 on T cells", "remark": "listed apart in the source"}, "[3]": {"molecular_target": "PD-L1 on cells (UniProt Q9NZQ7 19-290, limits assumed)", "sequence (Q9NZQ7 19-290 limits assumed)": "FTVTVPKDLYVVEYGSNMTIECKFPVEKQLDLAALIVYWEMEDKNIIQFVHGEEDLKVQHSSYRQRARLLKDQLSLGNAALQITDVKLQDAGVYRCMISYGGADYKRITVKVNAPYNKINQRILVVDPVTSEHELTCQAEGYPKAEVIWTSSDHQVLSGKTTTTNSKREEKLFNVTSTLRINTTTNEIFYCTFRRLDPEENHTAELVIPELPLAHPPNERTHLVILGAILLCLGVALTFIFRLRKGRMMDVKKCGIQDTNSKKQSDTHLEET"}},
  "data": [
    {"binder": "B1", "values": [
      {"measurement": "EC50 (read off the curve); hybrid PD-1/PD-L1 reporter gene assay, delta RLU, PD-1+ Jurkat T cells with SNU-620 cells, bottom right graph", "setting": "[1]", "value": "~0.05", "unit": "nM"},
      {"measurement": "EC50 (read off the curve); hybrid PD-1/PD-L1 reporter gene assay, delta RLU, PD-1+ Jurkat T cells with SNU-620 cells, bottom right graph; v39009 varied in the presence of atezolizumab", "setting": "[1]", "value": "~0.04", "unit": "nM"}
    ]},
    {"binder": "B2", "values": [
      {"measurement": "EC50 (read off the curve); hybrid PD-1/PD-L1 reporter gene assay, delta RLU, PD-1+ Jurkat T cells with SNU-620 cells, top right graph", "setting": "[2]", "value": "~0.05", "unit": "nM"}
    ]},
    {"binder": "B3", "values": [
      {"measurement": "EC50 (read off the curve); hybrid PD-1/PD-L1 reporter gene assay, delta RLU, PD-1+ Jurkat T cells with SNU-620 cells, bottom graph; composite signal of CD3 engagement and PD-1:PD-L1 blockade", "setting": "[3]", "value": "~0.04", "unit": "nM"}
    ]},
    {"binder": "B4", "values": [
      {"measurement": "EC50 (read off the curve); hybrid PD-1/PD-L1 reporter gene assay, delta RLU, PD-1+ Jurkat T cells with SNU-620 cells, bottom graph", "setting": "[2]", "value": "~0.05", "unit": "nM"}
    ]}
  ]
}
